Measured values taken from IntAct's records for PubMed 17721437.

B1: Dynamin-1-like protein (Rattus norvegicus (Rat)), O35303 (parent)
chain: MEALIPVINKLQDVFNTVGADIIQLPQIVVVGTQSSGKSSVLESLVGRDLLPRGTGVVTRRPLILQLVHVSPEDKRKTTGEENDPATWKNSRHLSKGVEAEEWGKFLHTKNKLYTDFDEIRQEIENETERISGNNKGVSPEPIHLKVFSPNVVNLTLVDLPGMTKVPVGDQPKDIELQIRELILRFISNPNSIILAVTAANTDMATSEALKISREVDPDGRRTLAVITKLDLMDAGTDAMDVLMGRVIPVKLGIIGVVNRSQLDINNKKSVTDSIRDEYAFLQKKYPSLANRNGTKYLARTLNRLLMHHIRDCLPELKTRINVLAAQYQSLLNSYGEPVDDKSATLLQLITKFATEYCNTIEGTAKYIETSELCGGARICYIFHETFGRTLESVDPLGGLNTIDILTAIRNATGPRPALFVPEVSFELLVKRQIKRLEEPSLRCVELVHEEMQRIIQHCSNYSTQELLRFPKLHDAIVEVVTCLLRKRLPVTNEMVHNLVAIELAYINTKHPDFADACGLMNNNIEEQRRNRLARELPSAVSRDKSSKVPSALAPASQEPSPAASAEADGKLIQDNRRETKNVASAGGGIGDGGRIGDGGQEPTTGNWRGMLKTSKAEELLAEEKSKPIPIMPASPQKGHAVNLLDVPVPVARKLSAREQRDCEVIERLIKSYFLIVRKNIQDSVPKAVMHFLVNHVKDTLQSELVGQLYKSSLLDDLLTESEDMAQRRKEAADMLKALQGASQIIAEIRETHLW

Variants of: B1
Conditions: with kapca_rat Prkaca

effect of a mutation on the interaction | Variant
disrupting interaction | S656A
